# Results reported in article PMC10283294, “Chromosome-level genome assembly of Murraya paniculata sheds light on biosynthesis of floral volatiles” (BMC Biology, 2023).
# T1: Me2G_2382 (PAAS) (Murraya paniculata, UniProt Z9M7G4IQ32)
# T1 sequence (Z9M7G4IQ32 1-505): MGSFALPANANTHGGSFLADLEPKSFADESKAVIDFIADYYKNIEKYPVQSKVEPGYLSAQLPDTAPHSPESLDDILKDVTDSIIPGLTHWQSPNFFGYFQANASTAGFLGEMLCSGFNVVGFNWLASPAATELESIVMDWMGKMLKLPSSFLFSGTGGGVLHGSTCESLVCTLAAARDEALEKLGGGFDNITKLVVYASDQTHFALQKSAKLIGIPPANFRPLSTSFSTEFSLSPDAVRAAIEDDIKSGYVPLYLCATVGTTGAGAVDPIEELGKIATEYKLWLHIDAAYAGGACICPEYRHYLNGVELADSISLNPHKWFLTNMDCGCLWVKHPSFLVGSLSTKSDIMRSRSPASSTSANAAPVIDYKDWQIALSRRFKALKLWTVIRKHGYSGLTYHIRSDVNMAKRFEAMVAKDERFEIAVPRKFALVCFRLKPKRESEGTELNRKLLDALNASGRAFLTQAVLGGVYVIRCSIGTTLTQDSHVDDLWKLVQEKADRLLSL
# T2: Me3G_1222 (PAAS) (Murraya paniculata, UniProt Z9VGT8ZCM8)
# T2 sequence (Z9VGT8ZCM8 1-380): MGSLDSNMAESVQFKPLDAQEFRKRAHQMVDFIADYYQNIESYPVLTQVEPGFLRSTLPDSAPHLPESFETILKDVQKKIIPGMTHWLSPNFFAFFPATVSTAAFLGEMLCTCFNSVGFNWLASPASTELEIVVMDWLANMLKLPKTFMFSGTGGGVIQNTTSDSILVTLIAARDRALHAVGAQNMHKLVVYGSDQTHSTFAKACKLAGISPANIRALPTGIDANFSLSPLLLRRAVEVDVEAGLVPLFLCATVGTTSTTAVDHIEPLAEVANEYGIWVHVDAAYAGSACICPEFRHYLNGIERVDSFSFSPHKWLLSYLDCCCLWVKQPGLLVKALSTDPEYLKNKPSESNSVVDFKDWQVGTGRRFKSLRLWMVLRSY
# Tests used:
# Test in all cases: GC-MS of phenylacetaldehyde, Lineweaver-Burk
# [1] = biological target: T1, Me2G_2382 (PAAS); format: biochemical; conditions: pH 8.5 Tris-HCl, 28 °C, 0.2 mM PLP, 0.1 mM EDTA
# [2] = test system: Me3G_2284 (PAAS); format: biochemical, Murraya paniculata; conditions: pH 8.5 Tris-HCl, 28 °C, 0.2 mM PLP, 0.1 mM EDTA; read-out: apparent Km
# [3] = test system: Me4G_0535 (PAAS); format: biochemical, Murraya paniculata; conditions: pH 8.5 Tris-HCl, 28 °C, 0.2 mM PLP, 0.1 mM EDTA; read-out: apparent Km
# [4] = test system: Me5G_1302 (PAAS); format: biochemical, Murraya paniculata; conditions: pH 8.5 Tris-HCl, 28 °C, 0.2 mM PLP, 0.1 mM EDTA; read-out: apparent Km
# [5] = biological target: T2, Me3G_1222 (PAAS); format: biochemical; conditions: pH 8.5 Tris-HCl, 28 °C, 0.2 mM PLP, 0.1 mM EDTA; read-out: apparent Km
# [6] = substrate: N[C@@H](Cc1ccccc1)C(=O)O; format: biochemical, Murraya paniculata; conditions: pH 8.5 Tris-HCl, 28 °C, 0.2 mM PLP, 0.1 mM EDTA
Km [2] [mM],Km [3] [mM],Km [4] [mM],Km [5] [mM],Molecule,apparent Km [1],Km [6] [mM],kcat/Km [6] [M⁻¹ s⁻¹]
36.6 ± 4.35,2 ± 0.54,9.89 ± 1.77,9.99 ± 0.46,N[C@@H](Cc1ccccc1)C(=O)O [L-phenylalanine],kinetic characterisation of purified recombinant PAAS revealed an apparent Km for L-phenylalanine (L-Phe),,
,,,,Me3G_0317 (PAAS) (Murraya paniculata) (protein) MGSLTSDLELEYNSNSSINLLDSEEFRRQGHMFVDFMAEYYKTIDKYPVRSQVEPGYLKKRLPESAPYSPESVETILEDVQEHIVPGITHWQSPNYFAYFPATSSVPGILGEMLSSGFNVVGMDWISSPAAVELENIVMDWLGQMLNLPKSFLFSGNGGGVIQGTTCEALLCTLTAARDRVLKKIGRENISKLVVYSSDQTHCAFQKAAQIVGIDRKNIRAIKTTKSSSYGLSAESVLSQINLDVEAGLIPLFLCATVGTTAITAVDPLRPLCDVAKQFGMWVHVDAAYAGSACICPEFRHFIDGVECVDSFSFNPHKWLFTSLDCCCLWVKDPSCLLSTLSTNPHYLKNEATDQEPKGQEVGYKDWQITLCRRFRSLKLWLVIRNFGVANLRNFIRSHVGMAKLFERLVHSDKRFEVAFPRNFSLVCFRVTPSAVMDKLRTKYKNGTHDQYRQLSEEERTNEFNRELLESINVSGKVFMTHAIVGGIYVLRFAAGNSMTMESHVREAWTVVQEHLEAF,,2.7821 ± 0.73,45.2
,,,,Me2G_2379 (PAAS) (Murraya paniculata) (protein) MGSFALPPNGNTHGRSFSADLEPKSFADEAKAVIDFIADYYKNIEKYPVQSKVEPGYLSAQLPDTAPHSPESLDDILKDVTDSIIPGLTHWQSPNFFGYFQANASTAGFLGEMLCSGFNVVGFNWLASPAATELESIVMDWMGKMLKLPSSFLFSGTGGGVLHGSTCESLVCTLAAARDEVLEKLGGGFDNITKLVVYASDQTHFALQKSAKLIGIPPANFRPLSTSFSTEFSLSPDAVRAAIEDDIKSGYVPLYLCATVGTTGAGAVDPIEELGKIATEYKLWLHIDAAYAGGACICPEYRHYLNGVELADSISLNPHKWFLTNMDCGCLWVKHPSFLVGSLSTKSDIMRSRSPASSTSANAAPVIDYKDWQIALSRRFKALKLWTVIRKHGYSGLTYHIRSDVNMAKRFEAMVAKDERFEIAVPRKFALVCFRLKPKRESEGTELNRKLLDALNASGRAFLTQAVLGGVYVIRCSIGTTLTQDSHVDDLWKLVQEKADRLLSLQEPEHARC,,3.7265 ± 0.83,100
,,,,Me2G_2381 (PAAS) (Murraya paniculata) (protein) MGSFALPANANTHGGSFSADLEPKSFADEAKAVIDFIADYYKNIEKYPVQSKVEPGYLSAQLPDTAPHSPESLDDILKDVTDSIIPGLTHWQSPNFFGYFQANASTAGFLGEMLCSGFNVVGFNWLASPAATELESIVMDWMGKMLKLPSSFLFSGTGGGVLHGSTCESLVCTLAAARDEVLEKLGGGFDNITKLVVYASDQTHFALQKSAKLIGIPPANFRPLSTSFSTEFSLSPDAVRAAIEDDIKSGYVPLYLCATVGTTGAGAVDPIEELGKIATEYKLWLHIDAAYAGGACICPEYRHYLNGVELADSISLNPHKWFLTNMDCGCLWVKHPSFLVGSLSTKSDIMRSRSPASSTRANAAPVIDYKDWQIALSRRFKALKLWTVIRKHGYSGLTYHIRSDVNMAKRFEAMVAKDERFEIAVPRKFALVCFRLKPKRESEGTELNRKLLDALNASGRAFLTQAVLGGVYVIRCSIGTTLTQDSHVDDLWKLVQEKADRLLSLQEPEHAGC,,1.7943 ± 0.60,62.9
,,,,Me1G_2960 (PAAS) (Murraya paniculata) (protein) MDAEQLRENAHKMVDFIADYYKSIENFPVLSQVQPGYLHNLIPDSAPNHPESLQNVLDDIQEKILPGVTHWQSPNYFAYFPSNSSVAGFLGEMLSAGLNIVGFSWITSPAATELEMIVLDWLAKLLKLPEDFLSTGQGGGVIQGTASEAVLVVLLAARDEALKRVGKNSLEKLVVYASDQTHSALQKACQIGGIHRQNFRVLKTDSSTNYSLSPDSLAEAISRDLTMGLIPFFLGATVGTTSSTAVDPLLALGNIAKSNGMWFHVDAAYAGSACICPEYRQYIDGVEKADSFNMNAHKWFLTNFDCSALWVKDRNTLIQSLSTNPEFLKNKVSFYFSVHNMFLYYFLAQLSRPKSKSHLFVFVHINCIMNCPFNNVMLTVVELSTLSGENGNILASQANMVVDYKDWQIPLGRRFRSLKLWMVLRLYGLENLQGYIRNHIQLAKHFEGLVAQDSRFEVVTPRIFSLVCFRLLPPHNDEDHGNKLNHNLLDAVNSTGKIFISHTVLSGKYILRFAVGAPLTEGRHVNAAWEVVRDRASALLARLSTE,,1.7851 ± 0.66,55.9
